{"source": "paper PMC8247599", "about": "(Genes & Development, 2021)", "proteins": {"B1": {"name": "Khc^855–941 (domain or fragment)", "chain": "not shown"}}, "target": "the molecule itself", "assay": "crystal structure", "data": [{"protein": "B1", "values": [{"measurement": "binding result", "result": "binds"}]}]}
